From patent US20100292083A1 (Ablynx, published 2010)
Numbering of substitutions follows the chain as printed.

T1: human IL6R (human, UniProt P08887 20-358, limits assumed)
T1 construct: Antigen of the Biacore experiments
T1 sequence (looked up): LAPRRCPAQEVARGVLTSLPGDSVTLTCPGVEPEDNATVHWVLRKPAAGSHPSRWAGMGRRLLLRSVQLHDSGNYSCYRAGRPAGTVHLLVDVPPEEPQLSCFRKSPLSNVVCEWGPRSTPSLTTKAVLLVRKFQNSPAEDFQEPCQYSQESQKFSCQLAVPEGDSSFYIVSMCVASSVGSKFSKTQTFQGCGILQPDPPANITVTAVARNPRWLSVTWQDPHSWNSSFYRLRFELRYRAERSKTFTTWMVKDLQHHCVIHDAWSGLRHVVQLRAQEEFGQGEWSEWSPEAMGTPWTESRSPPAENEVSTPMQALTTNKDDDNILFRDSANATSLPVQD

T2: IL6R on the cell-surface of TF-1 cells (UniProt P08887 20-468, limits assumed)
T2 sequence (looked up): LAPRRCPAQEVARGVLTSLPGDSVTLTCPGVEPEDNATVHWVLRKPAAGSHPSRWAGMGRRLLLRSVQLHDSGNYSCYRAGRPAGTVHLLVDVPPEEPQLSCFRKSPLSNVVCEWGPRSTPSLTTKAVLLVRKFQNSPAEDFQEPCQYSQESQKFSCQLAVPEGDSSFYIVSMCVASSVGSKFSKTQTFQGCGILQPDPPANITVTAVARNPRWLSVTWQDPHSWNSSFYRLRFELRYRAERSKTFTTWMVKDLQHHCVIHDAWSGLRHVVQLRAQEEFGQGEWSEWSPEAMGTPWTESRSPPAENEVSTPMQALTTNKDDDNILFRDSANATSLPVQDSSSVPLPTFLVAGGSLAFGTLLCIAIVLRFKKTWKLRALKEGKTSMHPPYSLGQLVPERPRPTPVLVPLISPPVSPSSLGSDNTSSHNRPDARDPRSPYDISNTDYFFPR

T3: soluble IL6R in human plasma (human, UniProt P08887 20-355, limits assumed)
T3 sequence (looked up): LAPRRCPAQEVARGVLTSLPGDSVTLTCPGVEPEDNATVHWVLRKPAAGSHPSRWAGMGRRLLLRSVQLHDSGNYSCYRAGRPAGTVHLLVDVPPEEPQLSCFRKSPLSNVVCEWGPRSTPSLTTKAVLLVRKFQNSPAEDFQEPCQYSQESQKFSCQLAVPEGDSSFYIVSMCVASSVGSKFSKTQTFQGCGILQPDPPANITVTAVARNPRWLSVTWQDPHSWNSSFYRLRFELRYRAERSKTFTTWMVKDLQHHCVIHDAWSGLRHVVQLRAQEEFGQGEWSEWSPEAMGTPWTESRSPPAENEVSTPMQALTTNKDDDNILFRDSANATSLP

B1: Nanobody IL6R65 (VHH)
VHH: EVQLVESGGGLVQPGGSLRLSCAASGSIFKVNAMGWYRQAPGKGRELVAGIISGGSTNYADSVKGRFTISRDNAKNTLYLQMNSLRPEDTAVYYCAFVTTNSDYDLGRDYWGQGTLVTVSS
notes: also called ILR65
B2: IL6R65PMP7G8 (VHH)
VHH: B1 VHH with I28T, K30R, V31I, A33V, G35A, I51V, S53N, G54D, N58T
notes: Also expressed in E. coli and purified via IMAC
B3: IL6R65PMP7F4 (VHH)
VHH: B1 VHH with S27T, I28T, A33V, G35A, S53N, N58T
notes: as for B2
B4: IL6R65PMP7G7 (VHH)
VHH: B1 VHH with S27T, I28T, V31I, A33I, G35A, I51V, S53T, S56N, N58T
notes: as for B2
B5: IL6R65PMP7C4 (VHH)
VHH: B1 VHH with S27T, I28T, K30R, V31I, A33V, G35A, S53T, G54N, N58S
notes: as for B2
B6: IL6R65PMP7D6 (VHH)
VHH: B1 VHH with K30R, A33V, G35A, G50A, I51V, S53N, S56T, N58T
notes: as for B2
B7: P32C9PMP2_E12 (VHH, name in Kabat numbering)
VHH: EVQLVESGGGLVQAGGSLRLSCAASGFTFDDYDIGWFRQAPGKGREGVSGISSSDGNTYYADSVKGRFTISRDNAKNTVYLQMNSLRPEDTAVYYCAAEPPDSSWYLDGSPEFFKYWGQGTLVTVSS
notes: Humanized 32C9 variant

Each binder was assayed against soluble IL6R in cynomolgus monkey plasma (cynomolgus monkey, UniProt A0A2K5WN54 60-396) (assay: cyno plasma potency assay: competition ELISA, inhibition of human IL6 binding to soluble IL6R).
Sequence of soluble IL6R in cynomolgus monkey plasma (A0A2K5WN54 entry or part of it): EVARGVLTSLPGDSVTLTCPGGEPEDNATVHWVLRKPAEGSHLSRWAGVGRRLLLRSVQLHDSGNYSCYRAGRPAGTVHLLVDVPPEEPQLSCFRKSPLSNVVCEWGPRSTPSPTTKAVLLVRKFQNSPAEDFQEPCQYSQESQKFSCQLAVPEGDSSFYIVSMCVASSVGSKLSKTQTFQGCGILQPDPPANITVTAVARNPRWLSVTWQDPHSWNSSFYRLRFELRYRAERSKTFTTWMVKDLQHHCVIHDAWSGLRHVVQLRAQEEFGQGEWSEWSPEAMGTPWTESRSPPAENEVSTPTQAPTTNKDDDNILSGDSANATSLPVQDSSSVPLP

| Binder | IC50 |
| --- | --- |
| B1 | 2.99 nM |
| B2 | 0.14 nM |
| B3 | 0.09 nM |
| B4 | 0.11 nM |
| B5 | 0.08 nM |
| B6 | 0.09 nM |

What follows are binders tested against T1, human IL6R (assay: SPR (Biacore), purified Nanobody).
Description: Binding curves at different concentrations of purified Nanobody were recorded on Biacore and used to calculate values for ka, kd and Kd (Table B-4).

| Binder | Kd | koff | kon | fold improvement of Kd relative to the parent molecule (IL6R65) |
| --- | --- | --- | --- | --- |
| B1 | 4.3 nM | 0.00234 s⁻¹ | 539000 M⁻¹ s⁻¹ |  |
| B2 | 0.95 nM | 0.000333 s⁻¹ | 352000 M⁻¹ s⁻¹ |  |
| B3 | 0.48 nM | 0.000292 s⁻¹ | 609000 M⁻¹ s⁻¹ |  |
| B4 | 0.56 nM | 0.00031 s⁻¹ | 550000 M⁻¹ s⁻¹ |  |
| B5 | 0.34 nM | 0.000177 s⁻¹ | 527000 M⁻¹ s⁻¹ | 13 fold |
| B6 | 0.42 nM | 0.000279 s⁻¹ | 672000 M⁻¹ s⁻¹ |  |

What follows are binders tested against T2, IL6R on the cell-surface of TF-1 cells (assay: cell-based or functional assay).

| Binder | Inhibition of IL6-dependent proliferation of TF-1 cells (3H-thymidine incorporation), IC50 |
| --- | --- |
| B1 | 55 nM |
| B2 | 6.2 nM |
| B3 | 5.2 nM |
| B4 | 3.5 nM |
| B5 | 2.5 nM |
| B6 | 3.7 nM |

What follows are binders tested against T1, human IL6R (assay: SPR (Biacore), periplasmic extract).
Description: Selection outputs were analyzed by picking individual colonies and growing them overnight in 1 ml 2×YT (Yeast Tryptone) medium+100 ug/ml Carbenicillin at 37 C. Nanobody containing periplasmic extracts were prepared, diluted 1/10 in PBS and subsequently tested for antigen binding in ELISA. Clones with the highest ELISA signals were sequenced and analyzed on Biacore. […] The off-rate of the best clone from the CDR3 library was 7×10e-4 s-1.

| Binder | koff |
| --- | --- |
| B2 | 0.00041 s⁻¹ |
| B3 | 0.00026 s⁻¹ |
| B4 | 0.00037 s⁻¹ |
| B5 | 0.00043 s⁻¹ |
| B6 | 0.00044 s⁻¹ |

Each binder was assayed against T3, soluble IL6R in human plasma (assay: human plasma potency assay: competition ELISA, inhibition of human IL6 binding to soluble IL6R).
Description: All 5 Nanobodies and the parent Nanobody were also tested in a plasma potency assay. In this assay different concentrations of Nanobody are mixed with soluble IL6R containing plasma from either human or cynomolgus monkey and a fixed concentration of human IL6. After 1 hour of incubation the mixture is transferred to a Maxisorp plate coated with the anti-IL6R MAb BN-12 (Diaclone). The amount of IL6 bound was determined by subsequent addition of biotinylated anti-IL6 polyclonal antibody (R&D Systems) and streptavidin-HRP. TMB was used as substrate. Substrate conversion was measured at 450 nm.

| Binder | IC50 |
| --- | --- |
| B1 | 4.93 nM |
| B2 | 0.34 nM |
| B3 | 0.24 nM |
| B4 | 0.22 nM |
| B5 | 0.21 nM |
| B6 | 0.19 nM |

Molecular target: T1, human IL6R
Test: SPR (Biacore), periplasmic extract
Remark: another data set of the same source
Description: The oligos were dissolved in H₂O and subsequently pooled at a final concentration of 0.4 uM for each oligo. 5 and 1 ul of this mixture was used for assembly PCR in a 50 ul reaction volume. Full-length product was purified using the Qiagen PCR purification kit. The purified PCR product was then digested with SfiI and BsteEII and ligated into the corresponding sites of expression vector pAX51. E. coli TG1 cells were transformed with 2 ul of ligation mixture and plated on LB agar+100 ug/ml ampicillin+2% glucose. Plates were incubated overnight at 37° C. Individual colonies were picked and grown overnight in 2×YT+100 ug/ml ampicillin+2% glucose. Cloned Nanobody genes were amplified directly from these cultures with M13 forward and reverse primers. PCR products were purified and subsequently sequenced. In parallel the same panel of Nanobodies was expressed at 1 ml scale for 4 hours at 37° C. Periplasmic extracts were prepared and without further purification analyzed on Biacore for their ability to bind human IL6R.

| Binder | koff |
| --- | --- |
| B7 | 0.000247 s⁻¹ |
